Experimental data from the supplement of paper PMC9170038.

test system: MS2 coat protein; assay: apparent KD of MS2 coat protein; higher = weaker reporter binding; conditions: Eterna round: R107; input ligand: theophylline 20 uM
Procedure, shortened: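 The designed RNA switches were transcribed on-chip from Illumina sequencing clusters. In 100 mM Tris-HCl pH 7.5, 80 mM KCl and 4 mM MgCl2, without or with constant ligand, they were titrated with SNAP-549-labelled MS2 coat protein from 0.7 or 1.5 nM to 3 µM in twofold steps. Apparent KD is the per-design median of normalised cluster binding-curve fits.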

Row | Sequence | apparent KD of MS2 coat protein
1 | GGCACACAUGAGGAUCACCCAUGUGGCGAUACCAGUUGAUGGUAAAACCCUUGGCAGCGCCAGUCACAUGCAGAUAGUUACUGAA [theeternabot_sameState_MS2_Theo_A_32] | 19.4 nM
2 | AUCGUACCUGAGGAUACCAGCAUGUGAUCAUAACAUGAGGAUCACCCAUGUAAUCAGUGAUGCCCUUGGCAGCUUAGUCGAUACA [Same State - Theophylline B (Freestyle 7)] | 101 nM
3 | GGAGCUACGUCGGCCGCCACUAGCGGGUAUUGCGUGUACAUGAGGAUCACCCAUGUAAUAUGGCCUAGGACCGGGACGUAGCUCC [Bison] | 22.4 nM
4 | UGUAUGUGAUCUGAUACCAGCUUUGAUAACCUGAGGAUCACCCUGGUAAAGGCGAAAGCCAGCCCUUGGCAGCAGAUCGCAUACU | 39.6 nM
5 | UGUAUGGACUGAAGGAGCGGUAGAUAACCUGAGGAUCACCCGGGUAAUAAAGGCGAAAGCCACCAGGUAGGUCGCAGUCCAUACU | 173 nM
6 | GCUGCCAUACGAAGGAGCGCUGUUGCAAUGAGGCGAACAUGAGGAUCACCCAUGUGGCAGCAGCAGGUAGGUCGCGUAUGGCAGC [EAB #12] | 53.6 nM
7 | AAAACCUCACCUGAGGAACACCCAGGUGAUACCAGCCUGGAAACAGGCCCUUGGCAGCACCAGGUCAUCAAAGAUGACCAAAUAA [TheoAX 25 #OpenEnded #AlternativeMS2] | 40.7 nM
8 | AUAUGAUCAUAUGAUACCAGAAAUGGUAUUCCUUUCUUUCUUACAUGAGGAUCACCCAUGUUCCCUUGGCAGCAUAUGAUCAUAU [ETHB #1] | 210 nM
9 | UUAGAUAUGACAGAUACCAGCGUGUUGUAGAACAUGAGGAUCACCCAUGUAGUGAUCGAGCGCCCUUGGCAGCUGGUGUGUUUGG [7.S] | 303 nM
10 | ACAUGAGGGAUGGAUACCAGCGACAUGAGGAUCACCCAUGUAUGAGGAUCAGCCAUGUUAUGCCCUUGGCAGCCACGAACAUGAG [ACFMULLIN] | 103 nM
11 | UGUAUGGACUGAAGGAGCGGGUAAAUAACUUGAGGAUCACCCAGGUAAAAGGCGAAAGCCACCCAGGUAGGUCGCAGUCCAUACU | 32.1 nM
12 | UCGUGUGUUUCGGAUACCAGUGAAAUCGAUACAUGAGGAUCACCCAUGUGAGAGGAUGUACACCCUUGGCAGCUGGCUGUAGCGG [yyzmullin] | 56.9 nM
13 | UGCCUAAAGUCGGCCGCCACUGAUGGUAUCCUCUCCUCGAGGUCACACAUGAGGAUCACCCAUGUCAGGACCGGGACUAGUGAGA [theeternabot_exclusion_MS2_Trp_B_36] | 9.65 nM
14 | GAGGACAUGAGGAUCACCCAUGUAAAUGAUACCAGUUGAGAGAGAGGCCCUUGGCAGCGUAAACAUGACAGCGAGCGAGAGUGCG [ss-theoA-0] | 19.2 nM
15 | CAAAAUGCGGCGGCCGCCACUCAGCUCCGUGUGGUUGGUCAUCUUAACAUGAGGAUCACCCAUGUGAGGACCGGGCCAGCGAGUG [theeternabot_exclusion_MS2_Trp_B_38] | 19.6 nM
16 | CACGGACGAGUGGAUCACCCUUGUAAUAACCGAGGACCGGUACGGCCGCCACUCGAAAACCGUGACCUGUACGAAAAGUGCAGGA | 148 nM
17 | CGGGACAUGAGGAUCACCCAUGUACGAUCCCGAGGACCGGUACGGCCGCCACUCGCUAGCGUUGAGUCGCGACUUUCAUAACUAA [theeternabot_sameState_MS2_Trp_A_27] | 92.2 nM
18 | CCCAGUUAUAUCAAAGGAAUUAUACUCGAAGGAGCGUCAUAGUAGGCAGGUAGGUCGCGAGACAUGAGGAUCACCCAUGUAGAGA [pxpmullin] | 58.4 nM
19 | GGAUAGGACAGAAGGAGCGUGAGAUGCAAAGCAUCAUUCCUCACAUGAGGAUCACCCAUGUCACAGGUAGGUCGCUGUCCUAUCG [ArgBX 4] | 119 nM

same assay, conditions: Eterna round: R107; input ligand: theophylline 2 mM

Row | Sequence | apparent KD of MS2 coat protein
20 | UUUUACAUGAGGAUCACCCAUGUGCGGCGCCGAGGACCGGUACGGCCGCCACUCGCAUGGGCAUGCCGCGAUAUCAUUCCUGAAC [theeternabot_sameState_MS2_Trp_A_43] | 306 nM
21 | UCGCUCGCCGCAAGGCGAGCGAGUUGCGAUACCAGCCCGGAAACGGGCCCUUGGCAGCGCACAUGAGGAUCACCCAUGUCAUGUU [#1 Exclusion - Theophylline A Attempt #4 (HarryS)] | 30.4 nM
22 | ACAUACAUGAGGAUCACCCAUGUCCAUGUUCGAGGACCGGUACGGCCGCCACUCGCGCGACAGCAUGAGGAACUUGAGGAUCACA [Exclusion Tryptophan A] | 82.2 nM
23 | AAAAUAAAAGGUGCAAAAUCCUAAUGUGAAGGAGCGCACGAAAGUGCAGGUAGGUCGCACAUGAGGAUCACCCAUGUAGCACCAA [ArgEX 4 #SwitchBubble] | 211 nM
24 | AAUUAUCAGUCGGCCGCCACUGACACAUGAGGAUCACCCAUGUAACAUGGGUAAAAUUAACUGAACAGGACCGGGACAAAGGCUA [JR_ExcTryptoB_Sub008] | 740 nM
25 | AAGACUGGACAUAAGUCCAGUCAACCUGAAGGAGCGGGUGGGUGCCCAGGUAGGUCGCGGGAACAUGAGGAUCACCCAUGUAUAA [ArgAS 5 #BothOrNeither #OpenEnded] | 31.9 nM
26 | AAGACAUGAGGAUCACCCAUGUCGUCUACACGAGGACCGGUACGGCCGCCACUCGUUUGCCAAUGAGCGCAUGCGGCCUGGGUAU [Exclusion Tryp A GF3] | 16.3 nM
27 | GUACAUGAGGAUCACCCAUGUAUAGUUGAAGGAGCGACCGGAGGGUCAGGUAGGUCGCAGCACAUGGCGUCAACCCGUGUAUGCC [#1 Exclusion - Arginine A Attempt #25 (Inspired by Pi)] | 18.5 nM
28 | GAGACGUCGGGAAGGAGCGCAUCCAAACCACACAUGAGGAUCACCCAUGUAUAAAUAUGCAUGCAGGUAGGUCGCCCGGUGUCCA [Xegeisge] | 114 nM
29 | ACUAGAGGUGGAAGGAGCGGGAGACAUGAGGAUCACCCAUGUGAAGUUUCGAGAGGAUCAUCCCAGGUAGGUCGCCAUGUCGAAA [vvbvmullin] | 61.6 nM
30 | CUACAUUUGUAGAAACCGGUCAACAAUAAUCGAGGACCGGUACGGCCGCCACUCGUAUAAUUUUAUACAUGAGGAUCACCCAUGU [Tryptophan A 3] | 16.5 nM
31 | UACAUGAGGAUCACCCAUGUCUGAACUGAAGGAGCGCUAAAUAAGGCAGGUAGGUCGCGGAAUUUUGUGUGCAUAUGCAUAUGGG [9.L] | 37.9 nM
32 | ACAUGAGGAUCACCCAUGUAUGACUAUCCUCGAGGACCGGUACGGCCGCCACUCGAAGGAGUGGCUCGCGAGUGCGCACUUGCGA [5' end] | 11.8 nM
33 | GGAGCUACGUCGGCCGCCACUAGCGGGUAUUGCGUGUACAUGAGGAUCACCCAUGUAAUAUGGCCUAGGACCGGGACGUAGCUCC [Bison] | 16.9 nM
34 | UGUAUGUGAUCUGAUACCAGCUUUGAUAACCUGAGGAUCACCCUGGUAAAGGCGAAAGCCAGCCCUUGGCAGCAGAUCGCAUACU | 20.7 nM
35 | UGUAUGGACUGAAGGAGCGGUAGAUAACCUGAGGAUCACCCGGGUAAUAAAGGCGAAAGCCACCAGGUAGGUCGCAGUCCAUACU | 321 nM
36 | GCUGCCAUACGAAGGAGCGCUGUUGCAAUGAGGCGAACAUGAGGAUCACCCAUGUGGCAGCAGCAGGUAGGUCGCGUAUGGCAGC [EAB #12] | 52.7 nM
37 | AAAACCUCACCUGAGGAACACCCAGGUGAUACCAGCCUGGAAACAGGCCCUUGGCAGCACCAGGUCAUCAAAGAUGACCAAAUAA [TheoAX 25 #OpenEnded #AlternativeMS2] | 595 nM
38 | ACAUGAGGGAUGGAUACCAGCGACAUGAGGAUCACCCAUGUAUGAGGAUCAGCCAUGUUAUGCCCUUGGCAGCCACGAACAUGAG [ACFMULLIN] | 235 nM
